Results taken from patent US12110325B2, “TM4SF5-targeting humanized antibody and use thereof” (KOREA RESEARCH INSTITUTE OF BIOSCIENCE AND BIOTECHNOLOGY, priority 2022, dated 2024).

Experiments:
SNU-398 cells = experiment: SNU-398 liver cancer xenograft (endogenous TM4SF5); assay type: in vivo; conditions: Ab27 300, cetuximab 300 or sorafenib 600 μg/mouse/dose
Experimental: (§1) Body weight and tumor volume were measured before injection of the antibody or drug. Tumor volumes were calculated using the formula width^2×length/2). Tumor masses were lysed as described in the literature for immunoblot analysis (J Clin Invest, 2008. 118 (4): pp. 1354-66) or tumor masses were fixed in 10% formalin and embedded in paraffin.
(§2) Formalin-fixed and paraffin-embedded 6-μm-thick tissue sections from xenograft tumors were processed for immunohistochemistry analysis as per the standard protocol. Sections were stained with anti-Ki67 antibody (SP6; Abcam) using the peroxidase technique. The proliferative index (%) was determined by calculating the number of Ki67^+ cells relative to the total number of cells, which consisted of at least 1,000 cells per field. Five randomly selected fields from tumor sections per mouse were analyzed using ImageJ software.

[1] = tested on: sorafenib-resistant SNU449T7 cells; experiment: Sorafenib-resistant SNU449T7 cell xenograft model; assay type: in vivo, mouse
Experimental: SNU449T7 cells were treated with sorafenib (1 μM to 10 μM) for 2 weeks, and the surviving cells (sorafenib-resistant SNU449T7; 1×10^6 cells) were mixed with Matrigel on ice and then injected subcutaneously into the backs of the mice. After 11 days, when tumor volumes reached about 100 mm^3, the tumor-bearing mice were randomized into control and treatment groups (n=7 per group). Ab27 (250 μg/mouse) or sorafenib (400 μg/mouse) was intraperitoneally (i.p.) injected at 2- or 3-day intervals for 2 or 3 weeks (8 times in total).
as §1
The antitumor activity of Ab27 was evaluated in a sorafenib-resistant SNU449T7 cell xenograft model. TM4SF5-overexpressing SNU449T7 cells were treated with sorafenib (1 μM to 10 μM; 3 culture medium changes per week) for 3 weeks, and the surviving sorafenib-resistant cells (1×10^6) were mixed with Matrigel and then subcutaneously injected into the flanks of the nude mice. Ab27 (250 μg/mouse) or sorafenib (400 μg/mouse) was injected at 2- or 3-day intervals (8 times in total).

SNU449T7 cells [2] = experiment: Combination treatment in SNU449T7 xenograft mouse model; assay type: in vivo; conditions: for inhibited tumor growth relative to the control: Ab27 270, sorafenib 1,200, doxorubicin 20 μg/mouse/dose i.p. twice per week, 6 times in total, alone or combined
Experimental: For combination treatment, SNU449T7 (1×10^6) cells were subcutaneously injected into the mice. When volumes reached about 100 mm^3, the tumor-bearing mice were randomized into control and treatment groups (n=6 per group). Ab27 (270 μg/mouse), sorafenib (1,200 μg/mouse), or doxorubicin (20 μg/mouse) was intraperitoneally (i.p.) injected twice per week (6 times in total). For the combination treatment group, Ab27 and sorafenib or doxorubicin were intraperitoneally (i.p.) injected at 6-hour intervals. Sorafenib was dissolved in DMSO/Cremophor EL/PBS (1:1:8).
as §1
SNU449T7 (1×10^6) cells were mixed with Matrigel and subcutaneously injected into the back, and then Ab27 (270 μg/mouse/dose); sorafenib (1,200 μg/mouse/dose); doxorubicin (20 μg/mouse/dose); a combination of Ab27 (270 μg/mouse/dose) and sorafenib (1,200 μg/mouse/dose) or a combination of doxorubicin (20 μg/mouse/dose); or saline (control) were intraperitoneally injected twice per week (6 times in total) into nude mice (n=6 per group) bearing SNU449T7 xenografts.

SNU449T7 cells [3] = experiment: SNU449T7 liver cancer xenograft, Ab27-hz9 versus Ab27 and cetuximab; assay type: in vivo, mouse
Experimental: SNU449T7 (1×10^7) cells were subcutaneously injected into the flanks of mice. When volumes reached about 100 mm^3, the tumor-bearing mice were randomized into control and treatment groups (n=6 per group). […] Normal human IgG was injected as a negative control.
as §1, §2
The antitumor efficacy of Ab27-hz9 was evaluated in the SNU449T7 xenograft model. SNU449T7 cells (3×10^6) were subcutaneously injected into the flanks of mice.

TM4SF5 [4] = target: T1, TM4SF5 (Homo sapiens, UniProt O14894); experiment: Immunocytochemistry of SNU449Cp and SNU449Tp cells; assay type: cell-based; conditions: SNU449Tp versus SNU449Cp; Ab27-hz9 with a stronger level
T1 construct: expressed in transfected cells; SNU449Cp (TM4SF5-low control)
T1 sequence (O14894 1-197): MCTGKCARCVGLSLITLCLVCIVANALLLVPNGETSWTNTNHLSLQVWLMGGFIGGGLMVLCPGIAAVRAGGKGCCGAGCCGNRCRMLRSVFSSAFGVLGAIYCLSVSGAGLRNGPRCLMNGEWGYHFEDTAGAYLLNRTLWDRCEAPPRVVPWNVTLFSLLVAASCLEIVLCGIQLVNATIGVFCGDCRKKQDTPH
Experimental: SNU-449Cp, SNU-449Tp, and HepG2 and HT-29 cells that had been transiently transfected with TM4SF5-specific siRNA were plated on coverslips and incubated for 48 hours. The cells were then fixed for 20 minutes in methanol and permeabilized with acetone for 1 minute. After blocking in 1% normal horse serum, the cells were incubated with Ab27 or Ab27-hz9 ([…]), followed by a corresponding secondary antibody conjugated to FITC. The cells were counterstained with 4,6-diamidino-2-phenylindole (DAPI; Sigma) to visualize nuclei. Immunofluorescent images were acquired under a confocal microscope (LSM 510 META, Carl Zeiss, Jena, Germany).

[5] = tested on: SNU449Tp cell-derived tumors; experiment: In vivo tumor targeting, DyLight 755-labeled antibody, SNU449T7 xenograft; set-up: species or system mouse; conditions: DyLight 755 label, 96 hours after injection; control IgG mostly in the liver
Experimental: (§3) Ab27, Ab27-hz9, and normal human IgG were conjugated with DyLight 755 and purified using a DyLight 755 Antibody Labeling Kit (Thermo Scientific) according to the manufacturer's instructions. When the size of the tumor formed by SNU449T7 or SNU-398 cell reached about 100 mm^3, 70 μg of dye-labeled antibody was injected into the tail vein of nude mice. The distribution profiles of the antibody were quantified by in vivo fluorescence using IVIS imaging system at 0, 24, 48, 72, and 96 hours after antibody injection. The tumor was removed at 96 hours after injection to determine the distribution of the DyLight755-labeled antibody in tumor tissues.
In order to validate the tumor-targeting ability of anti-TM4SF5 antibodies, the distributions of Ab27 and Ab27-hz9 after injection into SNU449Tp xenograft model were determined. SNU449T7 cells were subcutaneously injected into the flanks of the nude mice so as to prepare mice bearing tumors. Ab27, Ab27-hz9, and control human IgG were labeled with a fluorescent dye (DyLight 755) and […] injected into nude mice bearing SNU449Tp cell-derived tumors. After 96 hours, the distribution of the dye-labeled antibody was quantified by measuring the total photon flux of the fluorescence.

TM4SF5 [6] = target: T1, TM4SF5; experiment: Flow cytometry of SNU449Cp and SNU449Tp cells; assay type: cell-based
Experimental: To analyze antibody binding to TM4SF5, flow cytometry was performed using SNU449Cp, SNU449Tp, HEK293E, and CT26 cells. HCT-116, SNU-398, HT-29, C8161, and SNU-638 cells that had been transiently transfected with either a TM4SF5-specific siRNA or a negative control siRNA were also analyzed. Cells (2×10^5) were incubated with Ab27 or Ab27-hz9 at 0.03 μg to 0.3 μg at 4° C. for 45 minutes in 100 μL PBS containing 1% BSA. The cells were washed twice with 1% BSA/PBS, followed by a 30-minute incubation with fluorescein isothiocyanate (FITC)-conjugated anti-human IgG (Fc-specific; Pierce, Rockford, Ill., USA). Viable propidium iodide (PI)^− cells were analyzed for antibody binding using FACSCalibur (BD Immunocytometry System, San Jose, Calif., USA). To generate hemagglutinin (HA)-tagged mouse TM4SF5-expression vector, mouse TM4SF5 cDNA (Accession No. NM_029360.3) was subcloned into pCMV-HA-N vector (Clonetech, Mountain View, Calif.). PC3 cells transiently transfected with HA-tagged mouse TM4SF5-expression vector were incubated with Ab27 and anti-HA, and then analyzed by flow cytometry.

TM4SF5 [7] = target: T1, TM4SF5; experiment: Internalization analysis of SNU449Tp cells by flow cytometry; assay type: cell-based; conditions: Ab27 0.3 μg/mL, Ab27-hz9 0.2 μg/mL
Experimental: Cell-surface binding and subsequent internalization of Ab27 and Ab27-hz9 were analyzed using flow cytometry. Briefly, cells were incubated with Ab27 or Ab27-hz9 at 4° C. for 45 minutes, washed to remove unbound antibodies, and then either warmed to 37° C. to allow internalization or maintained at 4° C. Cells were transferred to ice-cold buffer to stop the occurrence of internalization and stained with FITC-conjugated anti-human IgG. PI^− cells were analyzed by flow cytometry. The relative levels of Ab27 or Ab27-hz9 bound to the cell surface were calculated as the shift in the fluorescence signal of the antibody occupancy relative to that detected at the beginning of the internalization period.
For the internalization analysis of SNU449Tp cells with Ab27 and Ab27-hz9, Ab27 (0.3 μg/mL) and Ab27-hz9 (0.2 μg/mL) were used to maintain a similar extent of initial antibody binding to TM4SF5.

[8] = tested on: endogenous TM4SF5-expressing tumors; experiment: In vivo tumor targeting, DyLight 755-labeled antibody, SNU-398 xenograft; set-up: species or system mouse; conditions: DyLight 755 label, tail vein, 96 hours; control IgG mostly in the liver
Experimental: as §3
Additionally, in vivo tumor targeting of Ab27 and Ab27-hz9 were examined using a SNU-398 xenograft mouse model. To confirm in vivo tumor targeting of Ab27 and Ab27-hz9 in endogenous TM4SF5-expressing liver cancer xenografts, SNU-398 cells were subcutaneously injected into the flanks of the nude mice so as to prepare mice bearing tumors. Ab27, Ab27-hz9, and control human IgG were labeled with DyLight 755 were injected into the tail veil of tumor-bearing mice, and fluorescence was measured after 96 hours.

Row | Molecule | Ki67 proliferation index of tumor sections (SNU-398 cells) | inhibited tumor growth (tumor volume) (SNU-398 cells; 6 times in total, normal human IgG control) | immunoblot of xenograft tumor tissues: phosphorylation of FAK, c-Src, p27Kip1, STAT3 and expression of BMI1 ([1]; Ab27 250 μg/mouse or sorafenib 400 μg/mouse) | tumor growth (in words) ([1]; sorafenib 400 μg/mouse/dose, 8 times in total) | inhibited tumor growth relative to the control (SNU449T7 cells [2]) | phosphorylation of STAT3 in tumor lysates (SNU449T7 cells [2]; sorafenib 1,200 μg/mouse/dose) | level of proliferative Ki67+ cells in tumor sections versus control mice (SNU449T7 cells [3]; 300 μg/mouse/dose) | inhibited tumor growth (tumor volume) (SNU449T7 cells [3]; 300 μg/mouse/dose i.p. 3 or 4 times per week, 12 times in total, normal human IgG control) | body weight (SNU449T7 cells [3]; 300 μg/mouse/dose, 12 times in total) | immunofluorescence staining of membrane edges (TM4SF5 [4]) | distribution of dye-labeled antibody (total photon flux) [5] | binding to SNU449Tp (high-TM4SF5) versus SNU449Cp (TM4SF5-low) cells (TM4SF5 [6]) | residual level of cell surface-bound antibody (TM4SF5 [7]) | distribution of dye-labeled antibody (fluorescence) [8]
1 | CNC(=O)c1cc(Oc2ccc(NC(=O)Nc3ccc(Cl)c(C(F)(F)F)c3)cc2)ccn1 [sorafenib] | significantly decreased | 51% | relatively moderately decreased the phosphorylation of FAK, c-Src, p27^KiP1, and STAT3 | did not remarkably decrease tumor growth | 42% | abolished the phosphorylation of STAT3 | – | – | – | – | – | – | – | –
2 | COc1cccc2c1C(=O)c1c(O)c3c(c(O)c1C2=O)C[C@@](O)(C(=O)CO)C[C@@H]3O[C@H]1C[C@H](N)[C@H](O)[C@H](C)O1 [doxorubicin] | – | – | – | – | 26% | – | – | – | – | – | – | – | – | –
3 | Ab27-hz9: humanized monoclonal antibody of Ab27; VH SEQ ID NO: 7, VL SEQ ID NO: 8; IGHV1-2 and IGKV3-20 frameworks (antibody, V domains shown, VH; VL, humanized monoclonal antibody of Ab27; IGHV1-2 and IGKV3-20 frameworks) VH: QVQLVQSGAEVKKPGASVKVSCKASGYTFTDYEMHWVRQAPGQGLEWMGAIDPETGGTAYNQKFKGRVTMTADKSISTAYMELSRLRSDDTAVYYCARPYLGYWGQGTLVTVSS VL: EIVLTQSPGTLSLSPGERATLSCRSSQSLVHSNGNTYLHWYQQKPGQAPRLLIYKVSNRFSGIPDRFSGSGSGTDFTLTISRLEPEDFAVYYCFQGSHIPLTFGQGTKVEIK | – | – | – | – | – | – | significantly lower | about 66% | without affecting body weight | stained the membrane edges of SNU449Tp cells, but not those of SNU449Cp cells | predominantly localized to the tumors | bound more efficiently to SNU449Tp cells than to SNU449Cp cells | significantly reduced | substantially localized in endogenous TM4SF5-expressing tumors
